# Biological target: SHP2 (UniProt P35235)
# Test: co-immunoprecipitation, Western blot
# Details: reference: LAIR1 wild type; sites Y251,Y281
substance,measurement,value
LAIR1 (from UniProt Q6GTX8) LAIR1 Y251/281F,binding against the reference,weaker

# Source: paper PMC10579300
